B1: peptide KCYTWNQMNL (SEQ ID NO: 36) (peptide)
peptide: KCYTWNQMNL
modifications: also: TFA salt
B2: peptide MCYTWNQMNL (SEQ ID NO: 60) (peptide)
peptide: MCYTWNQMNL
modifications: also: TFA salt
B3: peptide QCYTWNQMNL (SEQ ID NO: 30) (peptide)
peptide: QCYTWNQMNL
modifications: also: TFA salt
B4: peptide PCYTWNQMNL (SEQ ID NO: 62) (peptide)
peptide: PCYTWNQMNL
modifications: also: TFA salt
B5: peptide ICYTWNQMNL (SEQ ID NO: 58) (peptide)
peptide: ICYTWNQMNL
modifications: also: TFA salt
B6: peptide RCYTWNQMNL (SEQ ID NO: 28) (peptide)
peptide: RCYTWNQMNL
modifications: also: TFA salt
B7: peptide NCYTWNQMNL (SEQ ID NO: 61) (peptide)
peptide: NCYTWNQMNL
modifications: also: TFA salt
B8: peptide ACYTWNQMNL (SEQ ID NO: 55) (peptide)
peptide: ACYTWNQMNL
modifications: also: TFA salt
B9: peptide VCYTWNQMNL (SEQ ID NO: 65) (peptide)
peptide: VCYTWNQMNL
modifications: also: TFA salt
B10: peptide YCYTWNQMNL (SEQ ID NO: 40) (peptide)
peptide: YCYTWNQMNL
modifications: also: TFA salt
B11: peptide TCYTWNQMNL (SEQ ID NO: 64) (peptide)
peptide: TCYTWNQMNL
modifications: also: TFA salt
B12: peptide FCYTWNQMNL (SEQ ID NO: 38) (peptide)
peptide: FCYTWNQMNL
modifications: also: TFA salt
B13: peptide HCYTWNQMNL (SEQ ID NO: 34) (peptide)
peptide: HCYTWNQMNL
modifications: also: TFA salt
B14: peptide WCYTWNQMNL (SEQ ID NO: 66) (peptide)
peptide: WCYTWNQMNL
modifications: also: TFA salt
B15: peptide ECYTWNQMNL (SEQ ID NO: 32) (peptide)
peptide: ECYTWNQMNL
modifications: also: TFA salt
B16: peptide SCYTWNQMNL (SEQ ID NO: 63) (peptide)
peptide: SCYTWNQMNL
modifications: also: TFA salt
B17: peptide CCYTWNQMNL (SEQ ID NO: 10) (peptide)
peptide: CCYTWNQMNL
modifications: cysteine pairing not given here; also: TFA salt
B18: peptide LCYTWNQMNL (SEQ ID NO: 59) (peptide)
peptide: LCYTWNQMNL
modifications: also: TFA salt

Where no end group is shown, it is not given here.

For the first assay, the target named is endoplasmic reticulum aminopeptidase 1 (UniProt Q9NZ08 1-941, limits assumed). The experiment in a line: cell-based or functional assay.
Chain of endoplasmic reticulum aminopeptidase 1 (Q9NZ08 whole entry): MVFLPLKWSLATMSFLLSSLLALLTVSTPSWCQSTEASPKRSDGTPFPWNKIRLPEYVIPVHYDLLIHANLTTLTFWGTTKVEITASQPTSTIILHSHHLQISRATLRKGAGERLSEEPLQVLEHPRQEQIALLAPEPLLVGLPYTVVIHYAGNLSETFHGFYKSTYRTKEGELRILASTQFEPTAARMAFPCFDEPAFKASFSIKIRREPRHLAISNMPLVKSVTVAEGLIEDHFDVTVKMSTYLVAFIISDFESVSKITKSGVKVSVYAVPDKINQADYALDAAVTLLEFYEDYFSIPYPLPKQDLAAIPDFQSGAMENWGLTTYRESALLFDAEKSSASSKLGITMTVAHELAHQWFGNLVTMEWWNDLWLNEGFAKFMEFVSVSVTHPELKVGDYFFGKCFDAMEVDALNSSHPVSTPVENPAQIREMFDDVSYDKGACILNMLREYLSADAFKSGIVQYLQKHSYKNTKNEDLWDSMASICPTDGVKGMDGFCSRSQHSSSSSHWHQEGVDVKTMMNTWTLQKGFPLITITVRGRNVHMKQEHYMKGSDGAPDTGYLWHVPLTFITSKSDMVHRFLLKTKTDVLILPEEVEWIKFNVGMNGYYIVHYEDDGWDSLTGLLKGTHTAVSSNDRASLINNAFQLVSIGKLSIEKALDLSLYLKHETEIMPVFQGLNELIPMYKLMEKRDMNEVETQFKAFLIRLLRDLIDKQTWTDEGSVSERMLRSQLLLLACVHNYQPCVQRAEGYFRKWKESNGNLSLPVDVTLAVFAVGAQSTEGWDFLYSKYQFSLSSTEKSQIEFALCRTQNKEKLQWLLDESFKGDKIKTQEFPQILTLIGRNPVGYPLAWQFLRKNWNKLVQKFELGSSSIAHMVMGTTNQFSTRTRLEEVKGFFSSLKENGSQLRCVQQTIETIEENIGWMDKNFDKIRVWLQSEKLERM
Settings: not given
For B1, the “Production Rate of SEQ ID NO: 4” value is 45%.

Turning to B2, the “Production Rate of SEQ ID NO: 4” value worked out at 32.1%.

As for B3, the “Production Rate of SEQ ID NO: 4” value came to 32.5%. For the molecule B4, the “Production Rate of SEQ ID NO: 4” value was determined as 11.1%. As for B5, the “Production Rate of SEQ ID NO: 4” value stood at 2.8%. Turning to B6, the “Production Rate of SEQ ID NO: 4” value was 49.2%.

For the molecule B7, the “Production Rate of SEQ ID NO: 4” value was found to be 29.1%.

On to B8, for which the “Production Rate of SEQ ID NO: 4” value amounted to 10%. Regarding B9, the “Production Rate of SEQ ID NO: 4” value is 5.1%.

Regarding B10, the “Production Rate of SEQ ID NO: 4” value is 35.2%. The same measure, in the same setting: the figure for B11 is 15.6%. Same read-out and setting: the figure for B12 is 18.4%; for B13 it is 24.4%.

B14: the “Production Rate of SEQ ID NO: 4” value stood at 5.2%.

Consider B15, for which the “Production Rate of SEQ ID NO: 4” value was found to be 32.5%. For B16, the “Production Rate of SEQ ID NO: 4” value stood at 24.6%. Regarding B17, the “Production Rate of SEQ ID NO: 4” value is 20.3%. Turning to B18, the “Production Rate of SEQ ID NO: 4” value amounted to 5.8%.

The next assay concerns HLA-A*24:02 transgenic mouse. As to the kind of experiment: In vivo CTL induction in HLA-A*24:02 transgenic mouse (IFNγ ELISPOT assay of splenocytes). The settings on record: peptide 280 μg per site, intradermal Montanide ISA 51 VG emulsion, two sites; one week after administration. Here is the method: The HLA-A*24:02 transgenic mouse (C57BL/6CrHLA-A2402/K^b) is a mouse that expresses a chimeric HLA of a human MHC, HLA-A*24:02 with a mouse MHC, H-2K^b.
The solution was diluted with water for injection to a concentration of 10 mg/mL, and then converted to an emulsion by addition of an equal volume of Montanide ISA 51 VG. […] The concentrations of DMSO contained in emulsions were also fixed. One week after the administration, the mice were sacrificed with CO2 gas. Splenocytes were harvested from spleens removed from the mice. For detecting IFNγ-producing splenocytes, an IFNγ ELISPOT assay kit was used. In particular, an ELISPOT plate was treated with an anti-mouse-IFNγ antibody on the day before preparation of the splenocyte samples. On the next day, the plate was blocked by treatment with an RPMI 1640 medium with 10% FBS. To the blocked ELISPOT plate, the splenocyte samples from the HLA-A*24:02 transgenic mice were added at 2.5×10^5 cells/well. For in vitro stimulation of the cells, the peptide of SEQ ID NO: 4 was dissolved in DMSO at a concentration of 40 mg/ml, diluted with RPMI 1640 with 10% FBS to 40 μg/ml, and added to the splenocyte-containing wells at a final concentration of 10 μg/ml. The plate was incubated for 18-20 hours at 37° C. under an atmosphere of 5% CO2. Then, after removal of the culture medium from the wells, the ELISPOT plate was subjected to treatment for cell staining in accordance with the manufacturer's protocol. Stained spots were counted on ImmunoSpot S6 Analyzer (C.T.L.). […]
For the molecule ECYTWNQMNL [SEQ ID NO: 32], the “induction of CTLs responsive to the peptide of SEQ ID NO: 4 (IFNγ-producing splenocytes)” value is “induced CTLs responsive to the peptide of SEQ ID NO: 4”. Turning to FCYTWNQMNL [SEQ ID NO: 38], the “induction of CTLs responsive to the peptide of SEQ ID NO: 4 (IFNγ-producing splenocytes)” value was “induced CTLs responsive to the peptide of SEQ ID NO: 4”. With HCYTWNQMNL [SEQ ID NO: 34], the “induction of CTLs responsive to the peptide of SEQ ID NO: 4 (IFNγ-producing splenocytes)” value is “induced CTLs responsive to the peptide of SEQ ID NO: 4”.

In the case of KCYTWNQMNL [SEQ ID NO: 36], the “induction of CTLs responsive to the peptide of SEQ ID NO: 4 (IFNγ-producing splenocytes)” value is given as “induced CTLs responsive to the peptide of SEQ ID NO: 4”. The same measure, in the same setting: the entry for QCYTWNQMNL [SEQ ID NO: 30] is “induced CTLs responsive to the peptide of SEQ ID NO: 4”; for RCYTWNQMNL [SEQ ID NO: 28] it is “induced CTLs responsive to the peptide of SEQ ID NO: 4”. On the same count and under the same terms, the value for YCYTWNQMNL [SEQ ID NO: 40] was “induced CTLs responsive to the peptide of SEQ ID NO: 4”.

For the origin of these results see patent US20210100886A1, “WT1 CANCER ANTIGEN PEPTIDES AND PEPTIDE CONJUGATES COMPRISING THE PEPTIDES” (SUMITOMO DAINIPPON PHARMA CO., LTD., priority 2017, published 2021).
